The values that follow come from patent publication US20170101476A1 (Novartis, published 2017).

Where two headings read alike, the source gives them in different places.

What all share (assay): cell-based or functional assay
For assay [1], the target named is T1, Human CXCR2 (human, UniProt P25025 1-360).
T1 sequence: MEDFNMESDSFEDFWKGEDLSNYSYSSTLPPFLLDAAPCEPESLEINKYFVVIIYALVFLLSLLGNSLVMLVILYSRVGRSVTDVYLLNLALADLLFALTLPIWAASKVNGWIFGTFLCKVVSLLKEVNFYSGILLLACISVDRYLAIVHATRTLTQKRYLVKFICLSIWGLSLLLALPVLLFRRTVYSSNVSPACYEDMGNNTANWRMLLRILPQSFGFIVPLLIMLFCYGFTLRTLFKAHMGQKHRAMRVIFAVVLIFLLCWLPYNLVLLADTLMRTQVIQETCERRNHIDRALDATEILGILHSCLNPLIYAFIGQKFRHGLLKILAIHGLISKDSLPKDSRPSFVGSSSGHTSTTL

For assay [2], the target named is T2, Cynomolgus CXCR2 (cynomolgus, UniProt Q28519 3-353 (rhesus entry)).
T2 chain: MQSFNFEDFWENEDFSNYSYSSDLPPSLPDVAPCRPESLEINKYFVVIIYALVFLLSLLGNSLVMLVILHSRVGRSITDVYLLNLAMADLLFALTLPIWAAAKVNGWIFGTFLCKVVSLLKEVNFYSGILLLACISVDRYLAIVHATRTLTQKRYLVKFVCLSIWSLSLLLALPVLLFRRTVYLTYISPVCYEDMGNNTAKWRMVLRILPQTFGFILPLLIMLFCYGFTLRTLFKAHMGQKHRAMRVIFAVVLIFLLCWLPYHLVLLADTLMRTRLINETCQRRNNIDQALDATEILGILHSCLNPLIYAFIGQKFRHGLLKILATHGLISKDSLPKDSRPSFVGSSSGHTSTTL

The target in assay [3] is T1, Human CXCR2. The source holds these as a separate data set.
Assay [4] addresses T1, Human CXCR2. The source holds these as a separate data set.
The target in assay [5] is T2, Cynomolgus CXCR2.
Assay [6] deals with T1, Human CXCR2. The source holds these as a separate data set.
In assay [7] the target is T1, Human CXCR2. The source holds these as a separate data set.
In assay [8] the target is T2, Cynomolgus CXCR2.

B1: 163E03 (VHH, not shown: small tags and cut ends)
VHH: EVQLVESGGGLVQPGGSLRLSCVASGRIFSSNAMGWFRQAPGKEREFVAAITWRSGGSAYYADSAKGRFTISRDNAKNTVYLQMNSLKPEDTAVYYCAAGGSSWLSFPPDYWGQGTQVTVSS
Turning to B1, in the assay with Human CXCR2 [1], the “FLIPR IC50, GRO-α induced intracellular calcium release” value was 44.3 nM; the “[35S]GTPγS % inhibition max, GRO-α” value worked out at 100%; the “[35S]GTPγS accumulation IC50, GRO-α” value is 64.7 nM. Also, the “FLIPR IC50, GRO-α induced intracellular calcium release” value in the assay with Cynomolgus CXCR2 [2] amounted to 158 nM. For the same molecule, in the assay with Human CXCR2 [3], the “Human Chemotaxis IC50 (GROα)” value was found to be 1.3 nM and the “HumanWBSC IC50 (rhGROα)” value worked out at 9.4 nM.

B2: 127D01 (VHH, not shown: small tags and cut ends)
VHH: EVQLVESGGGLVQAGESLRLSCAASGSTFDFKVMGWYRQPPGKQREGVAAIRLSGNMHYAESVKGRFTISKANAKNTVYLQMNSLRPEDTAVYYCKVNIRGQDYWGQGTQVTVSS
For B2, in the assay with Human CXCR2 [1], the “FLIPR IC50, GRO-α induced intracellular calcium release” value came out at 21.9 nM; the “[35S]GTPγS % inhibition max, GRO-α” value was 66%; the “[35S]GTPγS accumulation IC50, GRO-α” value came to 12.5 nM. Further, the “FLIPR IC50, GRO-α induced intracellular calcium release” value in the assay with Cynomolgus CXCR2 [2] is 753 nM. Further, in the assay with Human CXCR2 [3], the “Human Chemotaxis IC50 (GROα)” value came to 3.9 nM and the “HumanWBSC IC50 (rhGROα)” value stood at 4.9 nM.

B3: 163D02 (VHH, not shown: small tags and cut ends)
VHH: EVQLVESGGGLVQAGGSLRLSCAASGRTFSDYAMGWFRQAPGKEREFVAAITWNGGRVFYTASVKGRFTISRDNAKNTMYLQMNSLKPEDTAVYYCAADKDRRTDYLGHPVAYWGQGTQVTVSS
As for B3, in the assay with Human CXCR2 [1], the “FLIPR IC50, GRO-α induced intracellular calcium release” value worked out at 1.91 nM; the “[35S]GTPγS % inhibition max, GRO-α” value came out at 100%; the “[35S]GTPγS accumulation IC50, GRO-α” value turned out to be 53.2 nM. In addition, in the assay with Cynomolgus CXCR2 [2], the “FLIPR IC50, GRO-α induced intracellular calcium release” value was determined as 37.2 nM. Moreover, the “HumanWBSC IC50 (rhGROα)” value with Human CXCR2 [3] stood at 6.6 nM.

B4: 54B12 (VHH, not shown: small tags and cut ends)
VHH: EVQLVESGGGLVQAGGSLTLSCAVSGSTFRINTMGWYRRAPGKQRELVAARDRGGYINYVDSVKGRFTVSRDNAKPTMYLQMNSLKPEDTAVYYCHAGTQDRTGRNFDRWGQGTQVTVSS
Regarding B4, in the assay with Human CXCR2 [1], the “FLIPR IC50, GRO-α induced intracellular calcium release” value came to 153 nM; the “[35S]GTPγS % inhibition max, GRO-α” value is 71.8%; the “[35S]GTPγS accumulation IC50, GRO-α” value was 15.4 nM. Moreover, the “FLIPR IC50, GRO-α induced intracellular calcium release” value with Cynomolgus CXCR2 [2] is 4080 nM. In the assay with Human CXCR2 [3], the “HumanWBSC IC50 (rhGROα)” value was 19.7 nM.

B5: 2B2 (VHH, not shown: small tags and cut ends)
VHH: EVQLVESGGELVQPGGSLRLSCAASGSILTINAMGWYRQAPGKQRELVVRRTRGGSTTYQDSVKGRFTISADIAKKTMYLQMNSLKPEDTAVYYCMLDDRGGVYWGQGTQVTVSS
B5: in the assay with Human CXCR2 [1], the “FLIPR IC50, GRO-α induced intracellular calcium release” value was found to be 441 nM; the “[35S]GTPγS % inhibition max, GRO-α” value was 71.3%; the “[35S]GTPγS accumulation IC50, GRO-α” value amounted to 103 nM. Besides, the “FLIPR IC50, GRO-α induced intracellular calcium release” value in the assay with Cynomolgus CXCR2 [2] stood at 3850 nM. Besides, in the assay with Human CXCR2 [3], the “Human Chemotaxis IC50 (GROα)” value worked out at 50 nM and the “HumanWBSC IC50 (rhGROα)” value came to 29.5 nM.

B6: 097A09 (VHH, not shown: small tags and cut ends)
VHH: EVQLVESGGGLVQPGGSLRLSCVASGSIVRINTMGWYRQTPGKQRELVADITSGGNINYIDAVKGRFTISRDNTKNTVYLQMNSLKPEDTAVYYCNAEIVVLVGVWTQRARTGNYWGQGTQVTVSS
Consider B6, for which, in the assay with Human CXCR2 [1], the “FLIPR IC50, GRO-α induced intracellular calcium release” value is 39.9 nM; the “[35S]GTPγS % inhibition max, GRO-α” value was 100%; the “[35S]GTPγS accumulation IC50, GRO-α” value worked out at 50.3 nM. The “FLIPR IC50, GRO-α induced intracellular calcium release” value with Cynomolgus CXCR2 [2] came to 640 nM. In addition, in the assay with Human CXCR2 [3], the “Human Chemotaxis IC50 (GROα)” value is 4.8 nM and the “HumanWBSC IC50 (rhGROα)” value was determined as 11.6 nM.

B7: CXCR20020 (bispecific antibody, not shown: small tags and cut ends)
chain: EVQLVESGGGLVQAGESLRLSCAASGSTFDFKVMGWYRQPPGKQREGVAAIRLSGNMHYAESVKGRFTISKANAKNTVYLQMNSLRPEDTAVYYCKVNIRGQDYWGQGTQVTVSSGGGGSGGGGSGGGGSGGGGSGGGGSGGGGSGGGGSEVQLVESGGGLVQAGGSLRLSCAASGRTFSDYAMGWFRQAPGKEREFVAAITWNGGRVFYTASVKGRFTISRDNAKNTMYLQMNSLKPEDTAVYYCAADKDRRTDYLGHPVAYWGQGTQVTVSS
On to B7, for which the “FLIPR IC50, GRO-α induced intracellular calcium release” value with Human CXCR2 [4] worked out at 6.98 nM. For the same molecule, in the assay with Cynomolgus CXCR2 [5], the “FLIPR IC50, GRO-α induced intracellular calcium release” value came to 1.64 nM. Also, in the assay with Human CXCR2 [6], the “[35S]GTPγS % inhibition of max, ENA-78” value was found to be 100%; the “[35S]GTPγS % inhibition of max, GRO-α” value turned out to be 100%; the “[35S]GTPγS % inhibition of max, IL-8” value stood at 100%; the “[35S]GTPγS accumulation IC50, ENA-78” value stood at 0.707 nM. In addition, in the assay with Human CXCR2 [6], the “[35S]GTPγS accumulation IC50, GRO-α” value came to 0.634 nM and the “[35S]GTPγS accumulation IC50, IL-8” value was 0.619 nM. Moreover, in the assay with Human CXCR2 [7], the “Human Chemotaxis IC50 (vs rhGROα)” value is 0.145 nM and the “Human WBSC IC50 (vs rhGROα)” value turned out to be 0.17 nM. The “Cynomologus WBSC IC50 (vs rhGROα)” value with Cynomolgus CXCR2 [8] came to 0.12 nM.
